Patent publication US20240141060A1 (Novartis, published 2024)

Columns and labels:
[1] = molecular target: T1, Cynomolgus CD73/NT5E Protein (His Tag) (Sino Biological Cat: 90192-C08H-50) (cynomolgus monkey, UniProt A0A2K5V5U7 27-547); assay: ForteBio Octet RED384 (BLI), whole IgG on AHQ sensors, 100 nM antigen, 1:1 model
T1 construct: treated as one protein; also called Cynomolgus CD73-His; recombinant cynomolgus monkey CD73; not shown: His tag
T1 sequence: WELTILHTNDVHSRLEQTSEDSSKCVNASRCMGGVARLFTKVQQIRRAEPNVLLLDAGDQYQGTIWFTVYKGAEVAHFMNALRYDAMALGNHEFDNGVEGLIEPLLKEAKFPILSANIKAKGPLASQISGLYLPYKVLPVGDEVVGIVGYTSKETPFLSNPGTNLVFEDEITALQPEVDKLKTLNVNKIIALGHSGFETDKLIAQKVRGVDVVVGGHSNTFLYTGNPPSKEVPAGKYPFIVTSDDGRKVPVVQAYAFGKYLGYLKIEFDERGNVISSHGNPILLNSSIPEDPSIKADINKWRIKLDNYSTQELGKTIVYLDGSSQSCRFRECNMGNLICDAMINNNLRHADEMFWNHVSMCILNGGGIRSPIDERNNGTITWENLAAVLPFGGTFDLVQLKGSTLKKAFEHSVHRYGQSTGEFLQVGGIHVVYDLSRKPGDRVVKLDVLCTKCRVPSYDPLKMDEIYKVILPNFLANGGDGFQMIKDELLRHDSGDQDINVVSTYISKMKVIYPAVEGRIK
Experimental: (§1) Briefly, ForteBio affinity measurements were performed by loading IgGs on-line onto AHQ sensors. Sensors were equilibrated off-line in assay buffer for 30 min and then monitored on-line for 60 seconds for baseline establishment. Sensors with loaded IgGs were exposed to 100 nM antigen for 3 minutes, and afterwards were transferred to assay buffer for 3 min for off-rate measurement. All kinetics were analyzed using the 1:1 binding model. Antigens used were: [0438] Human CD73-His: Recombinant Human 5′-Nucleotidase/CD73 Protein, CF from R&D Systems Cat: 5795-EN [0439] Mouse CD73-His: Recombinant Mouse 5′-Nucleotidase/CD73 Protein, CF from R&D Systems Cat: 4488-EN [0440] Cynomolgus CD73-His: Cynomolgus CD73/NT5E Protein (His Tag) from Sino Biological Cat: 90192-C08H-50

[2] = molecular target: T2, Recombinant Human 5′-Nucleotidase/CD73 Protein, CF (R&D Systems Cat: 5795-EN) (human, UniProt P21589 27-547); assay: ForteBio Octet RED384 (BLI), whole IgG on AHQ sensors, 100 nM antigen, 1:1 model; * value approaching upper limit for Kd measurement
T2 construct: Bought protein; also called Human CD73-His; recombinant human CD73; not shown: His tag
T2 sequence (looked up): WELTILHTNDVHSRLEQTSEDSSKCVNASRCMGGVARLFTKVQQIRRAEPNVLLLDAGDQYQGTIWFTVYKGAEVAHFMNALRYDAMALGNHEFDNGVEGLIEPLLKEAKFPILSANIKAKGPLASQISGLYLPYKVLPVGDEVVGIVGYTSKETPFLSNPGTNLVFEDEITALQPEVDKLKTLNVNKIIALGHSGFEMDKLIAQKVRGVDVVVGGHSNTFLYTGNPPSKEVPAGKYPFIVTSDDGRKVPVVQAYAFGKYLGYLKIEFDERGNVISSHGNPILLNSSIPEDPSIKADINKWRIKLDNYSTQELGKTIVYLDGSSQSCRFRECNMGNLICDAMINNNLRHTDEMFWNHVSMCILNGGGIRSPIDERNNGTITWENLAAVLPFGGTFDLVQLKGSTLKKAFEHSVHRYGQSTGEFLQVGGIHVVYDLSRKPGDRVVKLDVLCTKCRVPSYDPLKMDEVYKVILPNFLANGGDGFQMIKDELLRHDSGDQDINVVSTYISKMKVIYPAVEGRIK
Experimental: as §1

[3] = molecular target: T3, Recombinant Mouse 5′-Nucleotidase/CD73 Protein, CF (R&D Systems Cat: 4488-EN) (mouse, UniProt Q61503 29-549, limits assumed); assay: as above
T3 construct: Bought protein; also called Mouse CD73-His; recombinant mouse CD73; not shown: His tag
T3 sequence (looked up): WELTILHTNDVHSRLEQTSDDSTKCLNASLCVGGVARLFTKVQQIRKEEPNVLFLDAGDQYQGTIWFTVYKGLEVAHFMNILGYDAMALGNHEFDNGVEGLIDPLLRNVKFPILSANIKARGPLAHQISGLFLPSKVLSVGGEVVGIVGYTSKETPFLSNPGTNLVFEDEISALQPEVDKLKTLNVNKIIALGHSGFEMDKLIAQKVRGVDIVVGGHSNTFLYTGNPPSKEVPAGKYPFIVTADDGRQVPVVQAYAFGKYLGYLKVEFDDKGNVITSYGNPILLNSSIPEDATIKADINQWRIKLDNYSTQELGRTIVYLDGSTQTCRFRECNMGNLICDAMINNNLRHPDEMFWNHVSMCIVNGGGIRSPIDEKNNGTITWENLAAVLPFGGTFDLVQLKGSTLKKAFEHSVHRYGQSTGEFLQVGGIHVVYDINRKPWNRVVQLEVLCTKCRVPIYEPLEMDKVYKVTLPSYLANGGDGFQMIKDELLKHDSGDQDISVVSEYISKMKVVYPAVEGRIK
Experimental: as §1

[4] = molecular target: T2, Recombinant Human 5′-Nucleotidase/CD73 …; assay: Biacore SPR, Fab captured by anti-human Fab on CM5 chip, CD73 0.01-90 nM as analyte
Experimental: (§2) Proteins used were as follows: recombinant human CD73 (R&D Systems 5795-EN); recombinant cynomolgus monkey CD73 (Sino Biological 90912-C08H); recombinant mouse CD73 (R&D Systems 4488-EN); and recombinant rat CD73 (Sino Biological 80375-R08H). Anti-human Fab (GE Healthcare Life Sciences) was immobilized on all 4 flow cells (Fc) on a CM5 chip (GE). […] 0.01 nM to 90 nM CD73 (3-fold dilution series) was flown over all 4 Fcs. All samples were diluted in running buffer HBS-EP+(pH 7.4, 0.01 M HEPES, 150 mM NaCl, 3 mM EDTA and 0.05% (v/v) P20).

[5] = molecular target: T1, Cynomolgus CD73/NT5E Protein (His Tag) …; assay: as above
Experimental: as §2

[6] = molecular target: T3, Recombinant Mouse 5′-Nucleotidase/CD73 …; assay: as above
Experimental: as §2

[7] = molecular target: T4, recombinant rat CD73 (Sino Biological 80375-R08H) (rat, UniProt P21588 29-551); assay: as above
T4 construct: Bought protein; also called rCD73; rat CD73/His
T4 sequence (looked up): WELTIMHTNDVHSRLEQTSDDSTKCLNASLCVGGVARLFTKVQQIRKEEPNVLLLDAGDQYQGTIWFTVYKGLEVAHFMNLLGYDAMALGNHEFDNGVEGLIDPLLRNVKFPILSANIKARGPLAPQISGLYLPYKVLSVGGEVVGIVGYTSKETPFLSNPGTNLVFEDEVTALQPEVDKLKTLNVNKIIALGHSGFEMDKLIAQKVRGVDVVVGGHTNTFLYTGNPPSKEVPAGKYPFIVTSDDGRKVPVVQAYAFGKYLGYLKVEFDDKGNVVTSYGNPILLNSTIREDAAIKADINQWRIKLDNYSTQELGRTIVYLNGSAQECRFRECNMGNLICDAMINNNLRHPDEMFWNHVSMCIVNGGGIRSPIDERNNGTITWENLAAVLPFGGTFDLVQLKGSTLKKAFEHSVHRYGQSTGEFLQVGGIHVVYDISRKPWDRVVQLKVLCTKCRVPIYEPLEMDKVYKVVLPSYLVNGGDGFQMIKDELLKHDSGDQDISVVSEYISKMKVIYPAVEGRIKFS
Experimental: as §2

[8] = molecular target: T3, Recombinant Mouse 5′-Nucleotidase/CD73 …; assay: Biacore SPR, Fab captured by anti-human Fab on CM5 chip, CD73 as analyte
Experimental: as §2

[9] = molecular target: T4, recombinant rat CD73 (Sino Biological …); assay: as above
Experimental: as §2

[10] = molecular target: T3, Recombinant Mouse 5′-Nucleotidase/CD73 …; assay: Biacore SPR, His-tagged CD73 captured by anti-His antibody on CM5 chip, Fab as analyte
Experimental: (§3) The anti-His Ab was directly immobilized onto a CM5 chip surface by amine coupling. The His-tagged human CD73/His, cynomolgus monkey CD73/His, mouse CD73/His or rat CD73/His was flowed over and captured at a desired resonance unit (RU) for an Rmax of 20. Antibody analyte concentrations in serial dilutions of IgG or Fab were flowed over at 60 μL/min. The sensorgrams were analyzed using the manufacturer's software for a 1:1 binding model.

[11] = molecular target: T4, recombinant rat CD73 (Sino Biological …); assay: as above
Experimental: as §3

B1: 350.C (antibody, V domains shown)
VH: QVQLQESGPGLVKPSETLSLTCTVSGGSIERYYWSWIRQPPGKGLEWIGYIYGRGSTNYNPSLKSRVTISVDTSKNQFSLKLSSVTAADTAVYYCARESQESPYNNWFDPWGQGTLVTVSS
VL: DIQMTQSPSSVSASVGDRVTITCRASQGISSWLAWYQQKPGKAPKLLIYAASSLQSGVPSRFSGSGSGTDFTLTISSLQPEDFATYYCQQGNSFPRTFGGGTKVEIK
notes: also called 350 IgG1 format
- Kd [1]: 0.635 nM
- Kd [2]: 0.248 nM
- Kd [3]: 0.409 nM

B2: Fab 350 (Fab, V domains shown)
VH: QVQLQESGPGLVKPSETLSLTCTVSGGSIERYYWSWIRQPPGKGLEWIGYIYGRGSTNYNPSLKSRVTISVDTSKNQFSLKLSSVTAADTAVYYCARESQESPYNNWFDPWGQGTLVTVSS
VL: DIQMTQSPSSVSASVGDRVTITCRASQGISSWLAWYQQKPGKAPKLLIYAASSLQSGVPSRFSGSGSGTDFTLTISSLQPEDFATYYCQQGNSFPRTFGGGTKVEIKR
notes: Made by a stop between the two proline residues above the core hinge region of the heavy chain; also called 350 Fab; Fab of mAb 350
- Kd [4]: ≤ 0.1 nM
- Kd [5]: ≤ 0.1 nM
- Kd [6]: 17.3 nM
- Kd [7]: 28.3 nM

B3: Fab 373 (Fab, V domains shown)
VH: EVQLLESGGGLVQPGGSLRLSCAASGFTFHRYAMSWVRQAPGKGLEWVSAISGSGMNTYYADSVKGRFTISRDNSKNTLYLQMNSLRAEDTAVYYCARGGLYGSGSYLSDFDLWGRGTLVTVSS
VL: EIVLTQSPATLSVSPGERATLSCRASQSVGSNLAWYQQKPGQAPRLLIYGASTRATGIPARFSGSGSGTEFTLTISSLQSEDFAVYYCQQHNAFPYTFGGGTKVEIKR
- binding result [8]: no binding (tested: 0.01 nM to 90 nM CD73)
- binding result [9]: no binding (tested: 0.01 nM to 90 nM CD73)
- Kd [4]: 13 nM
- Kd [5]: 9.46 nM

B4: 373.A Fab (Fab, V domains shown)
VH: EVQLLESGGGLVQPGGSLRLSCAASGFTFHRYAMSWVRQAPGKGLEWVSAISGSGMNTYYADSVKGRFTISRDNSKNTLYLQMNSLRAEDTAVYYCARGGLYGSGSYLSDFDLWGRGTLVTVSS
VL: EIVLTQSPATLSVSPGERATLSCRASQSVGSNLAWYQQKPGQAPRLLIYGASTRATGIPARFSGSGSGTEFTLTISSLQSEDFAVYYCQQHNAFPYTFGGGTKVEIKR
- binding result [10]: no binding
- binding result [11]: no binding
